# Experimental data reported in patent publication US11674962B2, “Therapeutic and diagnostic methods for cancer” (Genentech, Inc., priority 2017, dated 2023).
# Several values for one entry are separate records, joined by “and”; a condition that tells them apart may be missing. Equal entries are not always repeated.
# Tests used:
# [1] = tested on: treatment-naive, locally advanced or metastatic (stage IIIB-IVB) NSCLC; experiment: B-F1RST phase II trial (NCT02848651) interim analysis: safety (adverse events) of atezolizumab; format: in vivo, human
# Description: The B-F1 RST (Clinical Trial ID No.: NCT02848651) patient population being evaluated for bTMB score consists of approximately 150 patients at 20 to 25 study sites (N=153). Patients are eligible for enrollment in the B-F1 RST study if they have treatment-naïve, locally advanced or metastatic (e.g., stage IIIB-IVB) NSCLC; measurable disease, as defined by RECIST v1.1; and an ECOG performance status of 0 or 1. Exclusion criteria include sensitizing EGFR mutations or ALK rearrangements; active brain metastases requiring treatment; leptomeningeal disease; other malignancies within 5 years of enrollment; HBV, HCV, or HIV infection; or history of autoimmune disorder. Participants are divided into cohorts based on bTMB score and receive atezolizumab at a dose of 1200 mg intravenously every three weeks. All patients undergo tumor assessment at baseline and every 6 weeks for the first 12 months following cycle 1, day 1, and then every 9 weeks therafter. Treatment with atezolizumab can be continued as long as participants were experiencing clinical benefit, i.e., in the absence of unacceptable toxicity or symptomatic deterioration attributed to disease progression. Tumor assessments continue until disease progression per RECIST v1.1 or loss of clinical benefit (investigator assessed), consent withdrawal, study discontinuation, study completion, or death. Mandatory blood samples are taken at baseline, during therapy, and at progression to evaluate changes in exploratory biomarkers. The interim analysis was prespecified to occur at 6 months after 50% of the patients have been enrolled, with a prespecified bTMB score of ≥16. The co-primary endpoints are the clinical efficacy of atezolizumab (as evaluated by investigator-assessed ORR per RECIST v1.1) and the relationship between bTMB and PFS benefit (as evaluated by investigator-assessed PFS per RECIST v1.1). The secondary objectives are safety and assessment of efficacy by investigator-assessed duration of response (DOR) and OS.
# Of 78 treated patients in the interim analysis population (IAP) from the B-F1 RST study, 58 had adequate blood samples with sufficient detection of circulating tumor DNA (MSAF≥1%) and comprised the biomarker-evaluable population (BEP). One patient of the IAP was never treated and therefore not safety- or efficacy-evaluable. A bTMB score of 16 (prevalence, 19% [11/58]) was prespecified to evaluate clinical efficacy in the BEP (bTMB high, ≥16; bTMB low, <16). Statistical tests were 2-sided at a 0.1 level and 90% confidence interval.
# [2] = tested on: locally advanced or metastatic non-small cell lung cancer (NSCLC); experiment: POPLAR phase II clinical trial (NCT01903993): atezolizumab vs docetaxel, outcomes by bTMB score; format: in vivo, human; details: for OS HR (95% CI) / PFS HR (95% CI) / OS HR / PFS HR: atezolizumab vs docetaxel
# Procedure: A blood-based assay was used to evaluate the association between clinical response to treatment with atezolizumab (MPDL3280A) and blood tumor mutational burden (bTMB) score in patients with non-small cell lung cancer (NSCLC) enrolled in two clinical trials, a phase II clinical trial, POPLAR (Clinical Trial ID No.: NCT01903993), and a phase III clinical trial, OAK (Clinical Trial ID No.: NCT02008227), in which atezolizumab was administered as a monotherapy.
# Pre-treatment blood samples from patients with NSCLC who were enrolled in the POPLAR and/or the OAK studies, in which atezolizumab was administered as a monotherapy, were evaluated for bTMB score and/or maximum somatic allele frequency (MSAF).
# The POPLAR (Clinical Trial ID No.: NCT01903993) patient population evaluated for bTMB score consisted of 273 patients. Patients were eligible for enrollment in the POPLAR study if they had locally advanced or metastatic (e.g., stage IIIB, stage IV, or recurrent) non-small cell lung cancer (NSCLC); disease progression during or following treatment with a prior platinum-containing regimen for locally advanced, unresectable/inoperable, or metastatic NSCLC, or disease recurrence within 6 months of treatment with a platinum-based adjuvant/neoadjuvant regimen; measurable disease, as defined by RECIST v1.1; and an Eastern Cooperative Oncology Group (ECOG) performance status of 0 or 1. Participants were randomized to receive either atezolizumab at a dose of 1200 mg intravenously every three weeks or docetaxel 75 mg per meter square (mg/m^2) intravenously every three weeks. Treatment with atezolizumab could be continued as long as participants were experiencing clinical benefit, i.e., in the absence of unacceptable toxicity or symptomatic deterioration attributed to disease progression.
# Analysis of bTMB was performed retrospectively. Progression-free survival (PFS) was defined as the time between date of randomization and date of first documented disease progression as assessed by the investigator using RECIST v.1.1 or death from any cause, whichever occurred first. Overall survival (OS) was defined as the time between the date of randomization until death due to any cause. Treatment arms were compared for OS and PFS individually using a univariate Cox regression model without stratification in the biomarker evaluable-population (BEP) and their subgroups or using a stratified (by randomization stratification factors) Cox model in the ITT population. No multiplicity correction was applied to p-values or confidence intervals (CI). Kaplan-Meier methodology was used to estimate median OS and PFS and construct survival curves.
# In the POPLAR ITT population (N=287), 273 samples were available for analysis. Of these, 6 were removed for sample contamination >1%; 9 were removed for median exon coverage <800×; and 47 were removed for low MSAF<1%.
# The POPLAR BEP (N=211) includes 15 patients with EGFR mutation or ALK rearrangement, and 196 without known alterations.
# To identify somatic mutations and calculate a bTMB score, whole blood samples obtained from each patient (collected in EDTA or Streck tubes) were processed through a series of spins to isolate plasma, from which cell free DNA (cfDNA) was extracted for sequencing analysis. Specifically, at least 20 ng purified cfDNA was used for library construction. Next-generation sequencing libraries using fragment barcodes and hybrid capture were constructed to analyze and sequence a pre-determined set of 394 genes that covered approximately 1.125 Mb of the exome. Specifically, purified libraries were hybrid captured using a 394-gene bait set and then further purified, pooled and loaded on an ILLUMINA® HISEQ® 4000 sequencing system. Sequenced libraries were aligned and sorted. […]
# [3] = bTMB score subgroup ≥10 (96 patients)
# [4] = bTMB score subgroup ≥16 (63 patients)
# [5] = bTMB score subgroup ≥20 (42 patients)
substance,measurement,setting,value
atezolizumab,Treatment-related Grade 5 AEs,[1]; Patients in IAP (n = 78),^bNo treatment-related Grade 5 AEs were reported.
same,"Grade 5 AEs, any cause","[1]; Patients in IAP (n = 78), reported as death, cardiac arrest, pulmonary embolism (n = 1 each)",3 (3.8%) n (%)
same,AE of special interest: Adrenal insufficiency,[1]; in vivo,1 (1.3%) n (%)
same,"AEs leading to discontinuation, patients",[1]; in vivo,15.4%
same,AEs leading to treatment discontinuation,[1]; in vivo,12 (15.4%) n (%)
same,"AEs, any cause",[1]; in vivo,78 (100.0%) n (%)
same,"Grade 3-4 AEs, any cause",[1]; in vivo,40 (51.3%) n (%)
same,"SAEs, any cause",[1]; in vivo,35 (44.9%) n (%)
same,Treatment-related AEs,[1]; in vivo,59 (75.6%) n (%)
same,Treatment-related Grade 3-4 AEs,[1]; in vivo,15 (19.2%) n (%)
same,Treatment-related SAEs,[1]; in vivo,12 (15.4%) n (%)
same,"Treatment-related serious AEs, patients",[1]; in vivo,14.1%
same,tolerability,[1]; in vivo,well tolerated
same,"treatment-related grade 3/4 AEs, patients",[1]; in vivo,16.7%
same,OS HR (95% CI),[2]; BEP (n = 211),0.68
same,PFS HR (95% CI),[2]; BEP (n = 211),0.9
same,OS HR (95% CI),[2]; ITT (n = 287),0.69 and 0.73
same,PFS HR (95% CI),[2]; ITT (n = 287),0.92 and 0.94
same,OS HR,[2]; [3],0.59
same,PFS HR,[2]; [3],0.68
same,OS HR,[2]; [4],0.56
same,PFS HR,[2]; [4],0.57
same,OS HR,[2]; [5],0.51
same,PFS HR,[2]; [5],0.58
same,median OS,"[2]; bTMB≥16, per treatment arm",13.0 months
same,median PFS,"[2]; bTMB≥16, per treatment arm",4.2 months
same,PFS HR,"[2]; reference bTMB score of 18 (Dx+, n=52)",0.57
